Patent publication US6541002B1, “Compositions and methods for providing a protein to a virion” (Thomas Jefferson University, priority 1998, dated 2003)

B1: CAT: chloramphenicol acetyltransferase, a protein which does not normally comprise a Vpr-binding region (protein)
chain: MEKKITGYTTVDISQWHRKEHFEAFQSVAQCTYNQTVQLDITAFLKTVKKNKHKFYPAFIHILARLMNAHPEFRMAMKDGELVIWDSVHPCYTVFHEQTETFSSLWSEYHDDFRQFLHIYSQDVACYGENLAYFPKGFIENMFFVSANPWVSFTSFDLNVANMDNFFAPVFTMGKYYTQGDKVLMPLAIQVHHAVCDGFHVGRMLNELQQYCDEWQGGA
B2: dWF-IN: dWF peptide (SEQ ID NO: 1) fused at its carboxyl terminus to the amino terminus of HIV-1 IN (protein)
chain: MQPWWAFFGGGSSWWSFSMGPTRFLDGIDKAQEEHEKYHSNWRAMASDFNLPPVVAKEIVASCDKCQLKGEAMHGQVDCSPGIWQLDCTHLEGKVILVAVHVASGYIEAEVIPAETGQETAYFLLKLAGRWPVKTVHTDNGSNFTSTTVKAACWWAGIKQEFGIPYNPQSQGVIESMNKELKKIIGQVRDQAEHLKTAVQMAVFIHNFKRKGGIGGYSAGERIVDIIATDIQTKELQKQITKIQNFRVYYRDSRDPVWKGPAKLLWKGEGAVVIQDNSDIKVVPRRKAKIIRDYGKQMAGDDCVASRQDED
B3: dWF-PR-IN: dWF peptide (SEQ ID NO: 1) fused to the HIV-1 protease cleavage site (PR), which is fused to the amino terminus of IN (protein)
chain: MQPWWAFFGGGSSWWSFSMGPTRFLDGIDKAQEEHEKYHSNWRAMASDFNLPPVVAKEIVASCDKCQLKGEAMHGQVDCSPGIWQLDCTHLEGKVILVAVHVASGYIEAEVIPAETGQETAYFLLKLAGRWPVKTVHTDNGSNFTSTTVKAACWWAGIKQEFGIPYNPQSQGVIESMNKELKKIIGQVRDQAEHLKTAVQMAVFIHNFKRKGGIGGYSAGERIVDIIATDIQTKELQKQITKIQNFRVYYRDSRDPVWKGPAKLLWKGEGAVVIQDNSDIKVVPRRKAKIIRDYGKQMAGDDCVASRQDED
modifications: left off: small tags and cut ends
B4: WF-CAT (protein)
chain: MQPWWAFFGGGSSWWSFSMGPTRMEKKITGYTTVDISQWHRKEHFEAFQSVAQCTYNQTVQLDITAFLKTVKKNKHKFYPAFIHILARLMNAHPEFRMAMKDGELVIWDSVHPCYTVFHEQTETFSSLWSEYHDDFRQFLHIYSQDVACYGENLAYFPKGFIENMFFVSANPWVSFTSFDLNVANMDNFFAPVFTMGKYYTQGDKVLMPLAIQVHHAVCDGFHVGRMLNELQQYCDEWQGGA

Experiments:
[1] = system: HIV-1 virions; experiment: CAT activity assay of HIV-1 virions from co-transfected 293T cells (incorporation into virions); type: cell-based
Experimental: About 10^6 293T cells were grown in dishes having a diameter of 10 centimeters. These cells were co-transfected with 10 micrograms of either plasmid pNL4-3 or plasmid pNL4-3DVpr, and with 10 micrograms of a plasmid selected from the group consisting of plasmid pSLXCMV-CAT, plasmid pSLXCMV-VPR-CAT, and plasmid pSLXCMV-dWF-CAT. After transfection, the cells were incubated in medium for about seven hours. The medium was then removed and replaced with fresh medium, and cells and medium were collected about forty-eight hours after the medium was replaced. At that time, the medium comprised virus produced by the cells. The amount of virus present in the medium was determined by assessing the amount of HIV-1 p24 antigen in the medium, using a p24 ELISA kit obtained from Dupont (Wilmington, Del.).
CAT activity assays were performed as described (Refaeli et al., 1995, Proc. Natl. Acad. Sci. USA 92:3621-3625). Briefly, about 10^6 transfected cells were harvested by centrifugation. Pelleted cells were lysed in 0.9 milliliter of CAT lysis buffer (Promega Corp., Madison, Wis.) to yield a crude extract. 50 microliters of crude extract was used in CAT assays, and the results of the assays were normalized to account for variation in the protein content of the various crude extracts which were made.
Virions obtained from the medium in which transfected 293T cells were grown were concentrated by ultracentrifuging the medium in a Sorval A-621 rotor for about three hours at 20,000 rotations per minute. […] The amount of HIV-1 p24 antigen in each fraction was assessed, and fractions containing the greatest amounts of p24 were selected. […] CAT activity was assessed in lysed virion preparations.
CAT activity was assessed by thin-layer chromatographic separation of ^14C-chloramphenicol from its acetylated derivatives. Radioactivity was quantitated by standard liquid scintillation methods. […]

[2] = system: IN-Defective HIV-1 Particles; experiment: Syncytia formation assay with IN-defective HIV-1 particles complemented with IN chimeras; type: cell-based
From the text: Using the calcium phosphate method for delivery of DNA into cells (Profection™, Promega Corp., Madison, Wis.), cells of human kidney carcinoma cell line 293T were transfected using HIV-1 proviral clones or co-transfected with these templates and SLX-CMV-VPR-IN, SLX-CMV-VPR-PR-IN, SLX-CMV-WF-IN, or SLX-CMV-dWF-PR-IN. Three days post-transfection, cell supernatants containing virus were harvested and clarified by low-speed centrifugation. HeLa-CD4-LTR/β-gal cells grown in either 60×14 or 35×10 millimeter plates were infected in duplicate at about 10-15% confluence using various viral stocks. Addition of supernatant to these MAGI reporter cells was adjusted, based upon HIV-1 p24 antigen content as quantitated by ELISA analysis (Kimpton et al., 1992, J. Virol. 66:2232-2239). MAGI cells contain an integrated cassette comprising the β-galactoside gene (β-gal) under the control of the HIV-1 long terminal repeat, and therefore can be stained for β-galactosidase activity (typically 48-72 hours post-infection).
Infected cells were fixed in a solution comprising 0.2% (v/v) glutaraldehyde and 1% (v/v) formaldehyde for 5 minutes at room temperature. Following fixation, cells were washed with phosphate buffered saline and stained using bromo-4-chloro-3-indolyl-β-D-galactopyranoside for 2 hours at 37° C. Representative fields of stained cells were photographed and numbers of deeply stained syncytia were determined either by visual counting through a microscope or from series of photographs taken in various fields of the stained cells using an Olympus CK2 microscope.
IN activity was detected using the syncytia formation assay described in this Example.

[3] = system: HIV-1 virions; experiment: Western blotting analyses of complemented HIV-1 virions; conditions: integration-competent progeny virions
Experimental: 293T cells were grown in duplicate 100×20 millimeter culture dishes and transfected as described in the previous section. Virions released into the cell culture medium 2 ½ to 3 days post-transfection were centrifuged at 2000 rpm for 5 minutes at 4° C. to remove cellular debris. Afterward, virions were concentrated by adding 10 milliliters of cell medium atop 2 milliliters of buffered, isotonic 20% (w/v) sucrose, and ultracentrifuging the cushioned medium at 40,000 rpm for 2 hours. The bulk of the solution was removed by careful pipetting, and pelleted virions (visible as slight white pellets) were removed from the bottom of the ultracentrifuge tubes by resuspension in residual medium, typically resulting in a volume of 60 to 100 microliters of concentrated virus particles.
Particles were loaded into 10-20% (w/v) Tris-HCl or Tris-tricine precast gradient gels (Bio-Rad Laboratories, Richmond, Calif.) and electrophoresed until the bromphenyl blue marker migrated to at least the bottom of the gel. […] IN or IN chimera proteins were detected using a rabbit anti-IN polyclonal serum and visualized by chemiluminescence development (NEN Life Science Products) of bound HRP-conjugated anti-rabbit 1gG antisera used at 1/1500 dilution (Sigma Chemical Co., St. Louis, Mo.).

[4] = virions from 293T cells co-transfected with pNL4-3 (Vpr expressed)
[5] = HIV-1 provirus template D116N (Table 4)
[6] = HIV-1 provirus template D116N, average of duplicate experiments (Table 4)
[7] = HIV-1 provirus template IN (1-4) (Table 5)
[8] = HIV-1 provirus template IN (1-234) (Table 5)

Row | Molecule | CAT activity of virions (conversion of chloramphenicol to an acetylated product) [1, 4] | % of Wild Type (syncytia) [2, 5] | Number of Syncytia Formed [2, 6] | Number of Syncytia Formed [2, 7] | Number of Syncytia Formed [2, 8] | amount of fusion protein incorporated into progeny virions [3] | % of Wild Type (syncytia) ([2]; HIV-1 provirus template IN (1-234) (Table 4)) | Number of Syncytia Formed ([2]; HIV-1 provirus template IN (1-234), average of duplicate experiments (Table 4)) | CAT activity of virions (conversion of chloramphenicol to an acetylated product) ([1]; virions from 293T cells co-transfected with pNL4-3DVpr (Vpr not expressed))
1 | B1 | 8 % conversion | – | – | – | – | – | – | – | –
2 | B2 | – | 20.8% | 42 | 10 | 14 | equal to the amount of IN(D116N) protein incorporated into progeny virions | – | – | –
3 | B3 | – | 25.7% | 52 | 18 | 20 | – | 21.7% | 44 | –
4 | B4 | 28 % conversion | – | – | – | – | – | – | – | 8 % conversion
